The source of these data is patent US9447158B2.

In this assay the target is MAPKAP Kinase II (MK2).

Molecule WLRRIKA displayed a % of … [SEQ ID NO: 115] Reaction Velocity at an Inhibitor Concentration of 100 µM of 394%.
